The source of these data is the nanobody polyreactivity screen of Harvey et al. (2022).

The series can be described thus: yeast display, Sf9 membrane polyspecificity reagent, FACS + sequencing; frameworks hold sequencing errors. The essentials: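 Polyreactivity labels are assigned by the sorting gate from which each nanobody was recovered. The gates were low and high (top ~1%), set on anti-HA fluorescence for expression and streptavidin fluorescence for reagent binding. Before sorting, galactose-induced (36–48 hours) yeast display cells were stained for 1 hour at 4 °C with 10% biotinylated, detergent-solubilized Sf9 membrane reagent.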
Take “QVQLVESGGGLVQAGGSLRLSCAASGSIFFYNAMGWYRQAPGKERELVAAISRGGNTNYADSVKGRFTISRDNAKNTVNLQLNSLKPEDTAVYYCNADYSFWATPYWEYGYDYWGQGTQVTVTS”: the “polyreactivity (PSR sort gate)” value is “low polyreactivity”.

As for “QVQLVESGGGLVQAGGSLRLSCAASGSIFFYYAMGWYRQAPGKERELVAAINSDGSTNYADSVKGRFTISRDNAKNTVFLQMNSLKPEDTAVYYCAAEWFPYRWGYGYWGQGTEVTVSS”, the “polyreactivity (PSR sort gate)” value is reported as “low polyreactivity”.

As for “QVQLVESGGGLVQAGGSLRLSCAASGSIFFYYAMGWYRQAPGKERELVAAIRSGTSTNYADSVKGRFTISRDNAKNTVYLQMNSLKPEDTAVYYCAARFPGGGYGMDYWGQGTQVTVSS”, the “polyreactivity (PSR sort gate)” value is “low polyreactivity”.

For “QVQLVESGGGLVQAGGSLRLSCAASGSIFFYYSMGWYRQAPGKERELVAAISLSGGRTYYADSVKGRSTISRDNAKNTVYLQMNSLKPEDTAVYYCNAASLSGRGQSYHYHGYDYWGQGTQVTVSS”, the “polyreactivity (PSR sort gate)” value is recorded as “high polyreactivity”.

On to “QVQLVESGGGLVQAGGSLRLSCAASGSIFFYYTMGWYRQAPGKERELVAAISVGGSTYYADSVKGRFTISRDNAKNTVYLQMNSLKPEDTAVYYCNAVPAKGYVTVVRYYYWGQGTQVTVSS”, for which the “polyreactivity (PSR sort gate)” value is recorded as “low polyreactivity”.

For the sequence “QVQLVESGGGLVQAGGSLRLSCAASGSIFGAYAMGRYRQAPGKERELVAAITSGGSTNYADSVKGRFTISRDNAKNTVYLQMNSLKPEDTADYYCAARRRYAKFRYDYWGQGTQVTVSS”, the “polyreactivity (PSR sort gate)” value was “high polyreactivity”.

In the case of “QVQLVESGGGLVQAGGSLRLSCAASGSIFGAYAMGWYRQAPGKERELVAAISGSGTSTYYADSVKGRFTISRDNAKNTVYLQMYSLKPEDTAVYYCAADGTYFYIYLGDRFDYWGQGTQVTVSS”, the “polyreactivity (PSR sort gate)” value is listed as “low polyreactivity”.

With “QVQLVESGGGLVQAGGSLRLSCAASGSIFGAYAMGWYRQAPGKERELVAAITWRGGSTYYADSVKGRFTISRDNAKNTVYLQMNSLKPEDTAVYYCAARYLRPDGDALTRYGYWGQGTQVTVSS”, the “polyreactivity (PSR sort gate)” value was “high polyreactivity”.

With “QVQLVESGGGLVQAGGSLRLSCAASGSIFGAYAMGWYRQAPGKERELVAVISRSGGRTYYADSVKGRFTISRDNAKNTVYLQMNSLKPEDTAVYYCAASYPVPPYGMDYWGQGTQVTVSS”, the “polyreactivity (PSR sort gate)” value is “high polyreactivity”.

With “QVQLVESGGGLVQAGGSLRLSCAASGSIFGAYAMGWYRQAPGKESELVAVIRWGGGSTYADSVKGRFTISRDNAKNTVYLQMNSLKPEDTAVYYCNRDKSWADLYSHAYDYWGQGTQVTVSS”, the “polyreactivity (PSR sort gate)” value is reported as “low polyreactivity”.

Turning to “QVQLVESGGGLVQAGGSLRLSCAASGSIFGAYTMGGYRQAPGKERELVAAITWSGGCTYYADSVKGRFTISRDNAKNTVYLQMNSLKPEDTAVYYCAAVFLRARYKYNYWGQGTQVTVSS”, the “polyreactivity (PSR sort gate)” value is listed as “high polyreactivity”.

For the sequence “QVQLVESGGGLVQAGGSLRLSCAASGSIFGDYAMGWYRQAPGKERELVAAIRYIGVSTYYADSVKGRFTISRDNAKNTVYLQMNSLKPEDTAVYYCAAEVYYEYYYWRYYWGQGTQVTVSS”, the “polyreactivity (PSR sort gate)” value is “high polyreactivity”.

“QVQLVESGGGLVQAGGSLRLSCAASGSIFGDYAMSWYRQAPGKERELVATITWIGGSTYYADSVKGRFTISRDNAKNTVYLQMNSLKPADTAVYYCAIYMGSYRLDYWGQGPQVTVSS”: the “polyreactivity (PSR sort gate)” value was “low polyreactivity”.

Take “QVQLVESGGGLVQAGGSLRLSCAASGSIFGDYVMGWYRQAPGKERELVAAINRGGSTYYADSVKARFTISRDNAKNTVYLQMNSLKPEDTAVYYCAAGYPSWYYGYPYDSWGQGTQVTVSS”: the “polyreactivity (PSR sort gate)” value is “low polyreactivity”.

In the case of “QVQLVESGGGLVQAGGSLRLSCAASGSIFGENAMGWDRQAPGKERELVAAITSGGSTDYADSVKGRFTISRDNAKNTVYLQMNSLKPEDTAVYYCAASGRVGPGYWYDSWGQGTQVTVSS”, the “polyreactivity (PSR sort gate)” value is “low polyreactivity”.

Regarding “QVQLVESGGGLVQAGGSLRLSCAASGSIFGENAMGWYRQATGKERELVAAITWGGTSTYYADSVKGRYTISRDNAKNTVYLQMNSLKPEDTAVYYCNTPRYVRRQGVKRYDYWGQGTQVTVSS”, the “polyreactivity (PSR sort gate)” value was “low polyreactivity”.

With “QVQLVESGGGLVQAGGSLRLSCAASGSIFGEYAMGWSRQAPGKERELVATIRQSGDSTYYADSVKGRFTISRDNAKNTVYLQMNSLKPEDTEVYYCADDLWLYDYYSEYDYWGQGTQVTVSS”, the “polyreactivity (PSR sort gate)” value was “low polyreactivity”.

In the case of “QVQLVESGGGLVQAGGSLRLSCAASGSIFGFNAMGWYRQAPGKEREFVAAISKSGGSTYYADSVKGRFTISCDNAKNTVYLQMNSLKPEDTAVYYCNAKSRHYEPYDYWGQGTQVTVSS”, the “polyreactivity (PSR sort gate)” value is given as “high polyreactivity”.

For “QVQLVESGGGLVQAGGSLRLSCAASGSIFGFNAMGWYRQAPGTERELVAAITWSGVSTYYADSVKGRFTISRDNAKNTVYLQMNSLKPEDTAVYYCAADVIIDWWYEMDYWGQGTQVTVSS”, the “polyreactivity (PSR sort gate)” value is recorded as “high polyreactivity”.

Take “QVQLVESGGGLVQAGGSLRLSCAASGSIFGFNAMGWYRQARGKERELVAAINNGGSTNYADSVKGRFTISRDNAKNTVYLQMNSLKPEDTAVYYCAARLNYIRRGYWGQGTQVTVSS”: the “polyreactivity (PSR sort gate)” value is given as “high polyreactivity”.

“QVQLVESGGGLVQAGGSLRLSCAASGSIFGFNAMGWYSQAPGKEREMVAAINNGGSTNYADSVKGRFTISRDNAKNTVYLQMNSLKPEDTAVYYCAAVRFRPRRNEYWGQGTQVTVSS”: the “polyreactivity (PSR sort gate)” value is “high polyreactivity”.

In the case of “QVQLVESGGGLVQAGGSLRLSCAASGSIFGFYAMGWYRQAPGKERELVAAITFSGGSTDYADSVKGRFTISRDNAKNTVYLQMNSLKPEDTAVYYCAARGYAIYSYWYYEPYDYWGQGTQVTVSS”, the “polyreactivity (PSR sort gate)” value was “high polyreactivity”.

Consider “QVQLVESGGGLVQAGGSLRLSCAASGSIFGFYAMGWYRQAPGKERELVAGISYGDSSTYYADSVKGRFTISRDNAKNTVYLQMNSLKPEDTAVYYCAAGHRQKYNWGRYDYWGQGTQVTVSS”, for which the “polyreactivity (PSR sort gate)” value is “low polyreactivity”.

For the sequence “QVQLVESGGGLVQAGGSLRLSCAASGSIFGGNAMGWYRQAPGKERELVATIDFSGTSTYYADSVKGRFTISRDNAKITVYLQMNSLKPEDTAVYYCAVRSGYVNRRYDYWGQGTQVTVSS”, the “polyreactivity (PSR sort gate)” value was “low polyreactivity”.

On to “QVQLVESGGGLVQAGGSLRLSCAASGSIFGGYAMGWYRPAPGKERELVASITKSGDSTYADSVKGRFTISRDNAKNTVYLQMNSLKPEDTAVYDCAADSTFGKFEYWGQGTQVTVSS”, for which the “polyreactivity (PSR sort gate)” value is listed as “low polyreactivity”.

As for “QVQLVESGGGLVQAGGSLRLSCAASGSIFGGYAMGWYRQAPGKERELVAAISSGGSTYYADSVKGRFTISRDNAKNTVYLQMNSLKPEDTAVYYCATSTYAYRRNSYDYTRPRFGYWGQGTQVTVSS”, the “polyreactivity (PSR sort gate)” value is on record as “high polyreactivity”.

Regarding “QVQLVESGGGLVQAGGSLRLSCAASGSIFGGYAMGWYRQAPGKERELVAAISVSDDITYYADSVKGRFTISRDNAKNTVYLQMNSLKPEDTAVYYCAAEPDTNYVVRYDYWGQGTQVTVSS”, the “polyreactivity (PSR sort gate)” value is “high polyreactivity”.

“QVQLVESGGGLVQAGGSLRLSCAASGSIFGGYTMGWSRQAPGKERELVAGITISGGSTYYADSVKGRFTISRDNAKNTVYLQMNSLKPEDTAVYYCAAVSFVVSSWGYGYWGQGTQVTVSS”: the “polyreactivity (PSR sort gate)” value was “low polyreactivity”.

Regarding “QVQLVESGGGLVQAGGSLRLSCAASGSIFGGYTMGWYRQAPGKERELVAAISARGGNTYYADSVKGRFTISRDNAKNTVYLQMNSLKPEDTAVYYCAKVRYTQSYRVYGYWGQGTQVTVSS”, the “polyreactivity (PSR sort gate)” value is listed as “high polyreactivity”.

“QVQLVESGGGLVQAGGSLRLSCAASGSIFGINAMGWYRQAPGKERELVAAITWSGGSTFYADSVKGRFTISRDNAKNTVYLQMTRLKPEDTAVYYCAADSGREPKGPSRLTYWGQGTQVTVSS”: the “polyreactivity (PSR sort gate)” value is on record as “high polyreactivity”.

Take “QVQLVESGGGLVQAGGSLRLSCAASGSIFGIYAMGWYRQAPGKERELVAAISSSGSTNYADSVKGRFTISRDNAKNTVYLQMNSLKPEDTAVYYCAAEQLSARWAYYYWGQGTQVTVSS”: the “polyreactivity (PSR sort gate)” value was “low polyreactivity”.

In the case of “QVQLVESGGGLVQAGGSLRLSCAASGSIFGIYVMGWYRQAPGKERELVAGISTRGGSTYYADSVKGRFTISRDNAKNTVYLQMNSLKPEDTAGYYCAAVPASYRDPMYYWGQGTQVTVSS”, the “polyreactivity (PSR sort gate)” value was “low polyreactivity”.

In the case of “QVQLVESGGGLVQAGGSLRLSCAASGSIFGKYALGWYRQAPGIERELVAAISGRGGGTYYADSVKGRFTISRDNAKNTVYLQVNRLNPEDTGVYYCNAYYSRLRYDYWGQGTQVTVSS”, the “polyreactivity (PSR sort gate)” value is listed as “high polyreactivity”.

For the sequence “QVQLVESGGGLVQAGGSLRLSCAASGSIFGKYTMGWYRQAPGKERELVAGITYRAGSTYYADSVKGRFTISRDNAKNTVYLQMNSLKPEDTAVYYCAARFYFRWYYYGSYANYWGQGTQVTVSS”, the “polyreactivity (PSR sort gate)” value is “high polyreactivity”.

Take “QVQLVESGGGLVQAGGSLRLSCAASGSIFGLYAMGWYIQAPGKERELVATISKSGVSTYYADSVKGRFTISRDNEKNTVYLQMKSLKPEVTAVYYCNADISRDNDFDYWGQGTQVTVSA”: the “polyreactivity (PSR sort gate)” value is reported as “low polyreactivity”.

“QVQLVESGGGLVQAGGSLRLSCAASGSIFGLYAMGWYRQAPGKETELVAAINWNGGDTYYADSVKGRFTISRDNAKNPVYLQMNSLKPEDTAVYYCAAEQYRYGIRRRHYDYWGQGTQVTVSS”: the “polyreactivity (PSR sort gate)” value was “low polyreactivity”.

For the sequence “QVQLVESGGGLVQAGGSLRLSCAASGSIFGLYAMGWYRQAPGNERELVAAINQSGGSTSYADSVKGRFTISRDNAKNTVYLQMNSLKPEDTAVYYCAAKRSWGATRRAYGRYDYWGQGTQVTVSS”, the “polyreactivity (PSR sort gate)” value is on record as “low polyreactivity”.

For the sequence “QVQLVESGGGLVQAGGSLRLSCAASGSIFGNAMGWYRQAPGKERELVAAITRGVSTYYADSVKGRFTISRDNAKNTVYLQMNSLKPEDTAVYYCNKTYVRGVHGVYLPITSYDYWGQGTQVTVSS”, the “polyreactivity (PSR sort gate)” value was “low polyreactivity”.

Take “QVQLVESGGGLVQAGGSLRLSCAASGSIFGNAMGWYRQAPGKEREVVAAISSSGSSTYYADSVKGRFTISRDNAKNTVYFQMNSLKPEDTAVYYCAKRRRSAAPKYDYWGQGTQVTVSS”: the “polyreactivity (PSR sort gate)” value was “high polyreactivity”.

“QVQLVESGGGLVQAGGSLRLSCAASGSIFGNNAMGWYRQARGKERELVAVITDGGNTYYADSVKGRFTISRDNAKNTVYLQMNSLKPEDTAVYYCNADWWGDSDYWGQGTQVTVSS”: the “polyreactivity (PSR sort gate)” value is “low polyreactivity”.

“QVQLVESGGGLVQAGGSLRLSCAASGSIFGPYAMGWYRQAPGKERELVAAITKSGGSTYYADSVKGRFTISRDNAKNTVYLQMNSLKPEDTSVYYCAADYGHEYWGQGTQVTVSS”: the “polyreactivity (PSR sort gate)” value is recorded as “low polyreactivity”.
